Target: the molecule itself
Test: glycerol gradient sedimentation + SEC

B1: Topoisomerase IIα (enzyme)
chain: MEVSPLQPVNENMQVNKIKKNEDAKKRLSVERIYQKKTQLEHILLRPDTYIGSVELVTQQMWVYDEDVGINYREVTFVPGLYKIFDEILVNAADNKQRDPKMSCIRVTIDPENNLISIWNNGKGIPVVEHKVEKMYVPALIFGQLLTSSNYDDDEKKVTGGRNGYGAKLCNIFSTKFTVETASREYKKMFKQTWMDNMGRAGEMELKPFNGEDYTCITFQPDLSKFKMQSLDKDIVALMVRRAYDIAGSTKDVKVFLNGNKLPVKGFRSYVDMYLKDKLDETGNSLKVIHEQVNHRWEVCLTMSEKGFQQISFVNSIATSKGGRHVDYVADQIVTKLVDVVKKKNKGGVAVKAHQVKNHMWIFVNALIENPTFDSQTKENMTLQPKSFGSTCQLSEKFIKAAIGCGIVESILNWVKFKAQVQLNKKCSAVKHNRIKGIPKLDDANDAGGRNSTECTLILTEGDSAKTLAVSGLGVVGRDKYGVFPLRGKILNVREASHKQIMENAEINNIIKIVGLQYKKNYEDEDSLKTLRYGKIMIMTDQDQDGSHIKGLLINFIHHNWPSLLRHRFLEEFITPIVKVSKNKQEMAFYSLPEFEEWKSSTPNHKKWKVKYYKGLGTSTSKEAKEYFADMKRHRIQFKYSGPEDDAAISLAFSKKQIDDRKEWLTNFMEDRRQRKLLGLPEDYLYGQTTTYLTYNDFINKELILFSNSDNERSIPSMVDGLKPGQRKVLFTCFKRNDKREVKVAQLAGSVAEMSSYHHGEMSLMMTIINLAQNFVGSNNLNLLQPIGQFGTRLHGGKDSASPRYIFTMLSSLARLLFPPKDDHTLKFLYDDNQRVEPEWYIPIIPMVLINGAEGIGTGWSCKIPNFDVREIVNNIRRLMDGEEPLPMLPSYKNFKGTIEELAPNQYVISGEVAILNSTTIEISELPVRTWTQTYKEQVLEPMLNGTEKTPPLITDYREYHTDTTVKFVVKMTEEKLAEAERVGLHKVFKLQTSLTCNSMVLFDHVGCLKKYDTVLDILRDFFELRLKYYGLRKEWLLGMLGAESAKLNNQARFILEKIDGKIIIENKPKKELIKVLIQRGYDSDPVKAWKEAQQKVPDEEENEESDNEKETEKSDSVTDSGPTFNYLLDMPLWYLTKEKKDELCRLRNEKEQELDTLKRKSPSDLWKEDLATFIEELEAVEAKEKQDEQVGLPGKGGKAKGKKTQMAEVLPSPRGQRVIPRITIEMKAEAEKKNKKKIKNENTEGSPQEDGVELEGLKQRLEKKQKREPGTKTKKQTTLAFKPIKKGKKRNPWSDSESDRSSDESNFDVPPRETEPRRAATKTKFTMDLDSDEDFSDFDEKTDDEDFVPSDASPPKTKTSPKLSNKELKPQKSVVSDLEADDVKGSVPLSSSPPATHFPDETEITNPVPKKNVTVKKTAAKSQSSTSTTGAKKRAAPKGTKRDPALNSGVSQKPDPAKTKNRRKRKPSTSDDSDSNFEKIVSKAVTSKKSKGESDDFHMDFDSAVAPRAKSVRAKKPIKYLEESDEDDLF
stoichiometry N: 2
